Test results as given in patent US20130195872A1 (NOVIMMUNE S A, published 2013).
Numbering of substitutions follows the chain as printed. One block for each binder: values may come before it.

How the values were obtained:
[1] = molecular target: T1, human IL-17A/IL-17F heterodimer (human, UniProt Q16552 24-155; Q96PD4 31-163, limits assumed); test: cell-based or functional assay
T1 sequence (looked up) 1: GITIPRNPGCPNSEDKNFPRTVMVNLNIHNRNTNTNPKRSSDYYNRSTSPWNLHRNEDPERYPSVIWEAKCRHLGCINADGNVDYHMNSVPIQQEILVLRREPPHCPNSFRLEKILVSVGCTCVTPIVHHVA
T1 sequence (looked up) 2: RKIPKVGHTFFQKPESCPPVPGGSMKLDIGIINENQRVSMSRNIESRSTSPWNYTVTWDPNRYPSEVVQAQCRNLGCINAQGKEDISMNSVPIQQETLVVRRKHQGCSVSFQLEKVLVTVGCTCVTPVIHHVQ

human IL-17A homodimer [2] = molecular target: T2, human IL-17A homodimer (human, UniProt Q16552 20-155, limits assumed); test: cell-based or functional assay
T2 sequence (looked up): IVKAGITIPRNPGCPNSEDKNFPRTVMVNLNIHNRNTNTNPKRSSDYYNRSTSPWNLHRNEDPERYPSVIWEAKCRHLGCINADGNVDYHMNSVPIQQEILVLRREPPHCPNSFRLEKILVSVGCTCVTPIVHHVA

[3] = molecular target: T3, cynomolgus IL-17F homodimer (cynomolgus, UniProt G7P4V0 31-163); test: FLISA, cytokine on beads
T3 construct: range 31-163; Produced in house in PEAK cells, His-tagged, predominantly disulfide-linked homodimer; also called cyIL-17F; cnIL-17F; not shown: N-terminal His tag
T3 sequence: T1 sequence (looked up) 2 with G22E, I29T, R73K, N74H, V100L, I129V

human IL-17A homodimer [4] = molecular target: T2, human IL-17A homodimer; test: FLISA, cytokine on beads
[5] = molecular target: T4, mouse IL-17A/IL-17F heterodimer (mouse, UniProt Q62386 26-158; Q7TNI7 29-161, limits assumed); test: cell-based or functional assay
T4 sequence (looked up) 1: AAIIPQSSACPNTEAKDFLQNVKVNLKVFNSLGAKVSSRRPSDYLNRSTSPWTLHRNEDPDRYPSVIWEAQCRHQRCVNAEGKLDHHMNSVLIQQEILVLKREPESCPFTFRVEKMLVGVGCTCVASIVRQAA
T4 sequence (looked up) 2: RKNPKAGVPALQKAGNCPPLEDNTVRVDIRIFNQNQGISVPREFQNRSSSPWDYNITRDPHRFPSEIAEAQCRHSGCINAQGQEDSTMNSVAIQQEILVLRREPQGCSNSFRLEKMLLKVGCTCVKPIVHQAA

[6] = molecular target: T5, cynomolgus IL-17A homodimer (cynomolgus, UniProt A0A2K5TTB0 20-155); test: cell-based or functional assay
T5 sequence: T2 sequence (looked up) with T7A, P12S, N38S, I81V, N82K, P108R

mouse IL-17F homodimer [7] = molecular target: T6, mouse IL-17F homodimer (mouse, UniProt Q7TNI7 29-161, limits assumed); test: cell-based or functional assay
T6 sequence (looked up): T4 sequence (looked up) 2

[8] = molecular target: cynomolgus IL-17A/IL-17F heterodimer (cynomolgus); test: cell-based or functional assay
[9] = molecular target: T5, cynomolgus IL-17A homodimer; test: cell-based or functional assay; remark: listed apart in the source
human IL-17A homodimer [10] = molecular target: T2, human IL-17A homodimer; test: cell-based or functional assay; remark: listed apart in the source
mouse IL-17A homodimer [11] = molecular target: T7, mouse IL-17A homodimer (mouse, UniProt Q62386 26-158, limits assumed); test: SPR Biacore, mAb captured, cytokine as analyte
T7 construct: Bought recombinant cytokine; also called muIL-17A
T7 sequence (looked up): T4 sequence (looked up) 1

[12] = molecular target: T4, mouse IL-17A/IL-17F heterodimer; test: SPR Biacore, mAb captured, cytokine as analyte
[13] = molecular target: T5, cynomolgus IL-17A homodimer; test: SPR Biacore, mAb captured, cytokine as analyte
mouse IL-17F homodimer [14] = molecular target: T6, mouse IL-17F homodimer; test: SPR Biacore, mAb captured, cytokine as analyte
rat IL-17A homodimer [15] = molecular target: T8, rat IL-17A homodimer (rat, UniProt Q61453 18-150, limits assumed); test: SPR Biacore, mAb captured, cytokine as analyte
T8 construct: His-tagged, produced in house in PEAK cells; not shown: His tag
T8 sequence (looked up): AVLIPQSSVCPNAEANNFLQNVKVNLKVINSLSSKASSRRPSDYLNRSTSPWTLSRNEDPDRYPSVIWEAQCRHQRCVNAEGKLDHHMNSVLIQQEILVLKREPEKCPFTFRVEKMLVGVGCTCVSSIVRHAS

[16] = molecular target: T9, cynomolgus IL-17A/IL-17F heterodimer (cynomolgus); test: SPR Biacore, mAb captured, cytokine as analyte
T9 construct: Produced in house in PEAK cells; how the heterodimer was made is not described; also called cyIL-17A-F heterodimer; cynomolgus IL-17A/F

human IL-17A homodimer [17] = molecular target: T2, human IL-17A homodimer; test: SPR Biacore, mAb captured, cytokine as analyte
[18] = molecular target: T5, cynomolgus IL-17A homodimer; test: FLISA, cytokine on beads
rat IL-17F homodimer = molecular target: T10, rat IL-17F homodimer (rat, UniProt Q5BJ95 29-161); test: cell-based or functional assay
T10 sequence (looked up): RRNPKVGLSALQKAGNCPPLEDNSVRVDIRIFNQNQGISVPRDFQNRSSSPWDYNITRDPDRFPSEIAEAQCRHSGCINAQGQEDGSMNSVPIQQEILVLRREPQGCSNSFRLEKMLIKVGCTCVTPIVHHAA

[19] = molecular target: T3, cynomolgus IL-17F homodimer; test: cell-based or functional assay
rat IL-17A homodimer [20] = molecular target: T8, rat IL-17A homodimer; test: cell-based or functional assay
mouse IL-17A homodimer [21] = molecular target: T7, mouse IL-17A homodimer; test: cell-based or functional assay

B2: 15E6FK antibody (antibody, V domains shown)
VH: EVQLVESGGGLVQPGRSLRLSCAASGFTFDDYAMHWVRQAPGKGLEWVSGINWSSGGIGYADSVKGRFTISRDNAKNSLYLQMNSLRAEDTALYYCARDIGGFGEFYWNFGLWGRGTLVTVSS
VL: not shown
notes: kappa light chain (captured by anti-human IgG-kappa); also called mAb 15E6FK; 15E6FK IgG1
IC50, IL-6 secretion by MEF cells, cytokine at 50 ng/ml [5]: > 1000 nM
IC50, IL-6 secretion by MEF cells, cytokine at 5 ng/ml [6]: 0.04 nM
IC50, IL-6 secretion by MEF cells, cytokine at 50 ng/ml (mouse IL-17F homodimer [7]): > 1000 nM
IC50, IL-6 secretion by MEF cells, cytokine at 25 ng/ml [8]: 0.08 nM
IC50, IL-6 secretion by MEF cells, cytokine at 5 ng/ml (human IL-17A homodimer [2]): 0.18 nM
IC50, IL-6 secretion by HFFF2 human fibroblasts, cytokine at 25 ng/ml [9]: 0.76 nM
IC50, IL-6 secretion by HFFF2 human fibroblasts, cytokine at 25 ng/ml (human IL-17A homodimer [10]): 0.83 nM
binding result (mouse IL-17A homodimer [11]): no binding (tested: up to 90 nM cytokine)
Kd [12]: 0.524 nM
Kd [13]: 0.0104 nM
Kd (mouse IL-17F homodimer [14]): 0.236 nM
binding result (rat IL-17A homodimer [15]): no binding (tested: up to 90 nM cytokine)
Kd [16]: 0.0394 nM
Kd (human IL-17A homodimer [17]): 0.0117 nM

B3: 4B11 antibody (antibody, IgG1, V domains shown)
VH: QLQLQESGPGLVKPSETLSLTCAVSDDYISSRSYYWGWIRQPPGKGLEWIGSIYYSGSTYYNPSLKSRVTISVDTSKNQFSLKVSSVTATDTAVYYCARVSGWNGNWFDPWGQGTLVTVSS
VL: not shown
notes: also called 4B11 IgG1
IC50, IL-6 secretion by MEF cells, cytokine at 17.5 ng/ml [1]: 810 nM
IC50, IL-6 secretion by MEF cells, cytokine at 5 ng/ml (human IL-17A homodimer [2]): 680 nM
IC50, IL-6 secretion by HFFF2 human fibroblasts, cytokine at 25 ng/ml (human IL-17A homodimer [10]): > 1000 nM
binding result [3]: binds
binding result [18]: binds

B4: 5E12 antibody (antibody, IgG4, V domains shown)
VH: QVQLVQSGGGLVQPGRSLRLSCAASGFTFDDYAMHWVRQAPGKGLEWVSGISWNSGTIGYADSVKGRFTISRDNAKNSLYLQMNSLRAEDTALYYCAKELYISDWDSYSYGMDVWGQGTTVTVSS
VL: not shown
notes: also called Mab05; 5E12 IgG4
IC50, IL-6 secretion by MEF cells, cytokine at 17.5 ng/ml [1]: > 1000 nM
IC50, IL-6 secretion by MEF cells, cytokine at 5 ng/ml (human IL-17A homodimer [2]): > 1000 nM
binding result [3]: binds
binding result (human IL-17A homodimer [4]): no binding

B5: 4H11 antibody (antibody, IgG1, V domains shown)
VH: EVQLVESGGGLVQPGGSLKLSCAASGFTFSGSSMHWVRQASGKGLDWVGRIRSKANSYATAYAASVIGRFTISRDDSKNTAYLQMNSLKTEDTAVYYCTTSVATTLTDYYGMDVWGQGTTVTVSS
VL: EIVLTQSPATLSLSPGERATLSCRASQSVSSYLAWYQQKPGQAPRLLIYDASNRATGIPARFSGSGSGTDFTLTISSLEPEDFAVYYCQQRSNWPPFTFGPGTKVDIK
notes: also called Mab09; 4H11 IgG1
IC50, IL-6 secretion by MEF cells, cytokine at 17.5 ng/ml [1]: 810 nM
IC50, IL-6 secretion by MEF cells, cytokine at 5 ng/ml (human IL-17A homodimer [2]): 87 nM
IC50, IL-6 secretion by HFFF2 human fibroblasts, cytokine at 25 ng/ml (human IL-17A homodimer [10]): 108 nM
binding result [3]: binds
binding result [18]: binds

B6: 30D12BF antibody (antibody, V domains shown)
VH: QVQLVQSGAEVKKPGASVKVSCKASGYTFTSYDINWVRQATGQGLEWMGWLNPDSGVIRYAQKFQGRVTMTRDTSISTAYMELSSLRSEDTAVYYCAREWFGELPSYYFYSGMDVWGQGTTVTVSS
VL: EIVLTQSPATLSLSPGERATLSCRASQSVSSYLAWYQQKPGQAPRLLIYDASNRATGIPARFSGSGSGTDFTLTISSLEPEDFAVYYCQQRSNWPPTFGPGTKVDIK
IC50, IL-6 secretion by MEF cells, cytokine at 25 ng/ml (rat IL-17F homodimer): 30 nM
IC50, IL-6 secretion by MEF cells, cytokine at 17.5 ng/ml [1]: 27 nM
IC50, IL-6 secretion by MEF cells, cytokine at 25 ng/ml [19]: 130 nM
IC50, IL-6 secretion by MEF cells, cytokine at 5 ng/ml [6]: 2.5 nM
IC50, IL-6 secretion by MEF cells, cytokine at 5 ng/ml (rat IL-17A homodimer [20]): > 1000 nM
IC50, IL-6 secretion by MEF cells, cytokine at 25 ng/ml [8]: 13 nM
IC50, IL-6 secretion by MEF cells, cytokine at 5 ng/ml (human IL-17A homodimer [2]): 1.6 nM
IC50, IL-6 secretion by HFFF2 human fibroblasts, cytokine at 25 ng/ml [9]: 5.7 nM
IC50, IL-6 secretion by HFFF2 human fibroblasts, cytokine at 25 ng/ml (human IL-17A homodimer [10]): 3 nM

The remaining lines, values ahead:

IC50, IL-6 secretion by MEF cells, cytokine at 17.5 ng/ml [1]: > 1000 nM
IC50, IL-6 secretion by MEF cells, cytokine at 5 ng/ml (human IL-17A homodimer [2]): > 1000 nM
binding result [3]: binds
binding result (human IL-17A homodimer [4]): no binding
B1: 41B10 antibody (antibody, IgG4, V domains shown)
VH: not shown
VL: DIQMTQSPSSLSASVGDRVTITCRASQGISSWLAWYQQKPEKAPKSLIYAASSLQSGVPSRFSGSGSGTDFTLTISSLQPEDFATYYCQQYNSYPITFGQGTRLEIK
notes: also called 41B10 IgG4

IC50, IL-6 secretion by MEF cells, cytokine at 5 ng/ml (mouse IL-17A homodimer [21]): > 1000 nM
IC50, IL-6 secretion by MEF cells, cytokine at 25 ng/ml (rat IL-17F homodimer): 0.71 nM
IC50, IL-6 secretion by MEF cells, cytokine at 50 ng/ml [5]: 170 nM
IC50, IL-6 secretion by MEF cells, cytokine at 17.5 ng/ml [1]: 4.4 nM
IC50, IL-6 secretion by MEF cells, cytokine at 50 ng/ml (mouse IL-17F homodimer [7]): 6.2 nM
IC50, IL-6 secretion by MEF cells, cytokine at 5 ng/ml (rat IL-17A homodimer [20]): > 1000 nM
IC50, IL-6 secretion by HFFF2 human fibroblasts, cytokine at 25 ng/ml [9]: 20 nM
IC50, IL-6 secretion by HFFF2 human fibroblasts, cytokine at 25 ng/ml (human IL-17A homodimer [10]): 21 nM
B7: 39F12A antibody (antibody, V domains shown)
VH: QVQLVQSGAEVKKPGSSVKVSCKASGGTLSSYAFSWVRQAPGQGLEWMGGIIPFFGTTNYAQKFQGRVIITADESTNTAYMELSGLRSEDTAVYYCARDRDYYGLGSPFYYYGMDVWGQGTTVTVSS
VL: EIVLTQSPDFQSVTPKEKVTITCRASQSIGSSLHWYQQKPDQSPKLLIKYASQSFSGVPSRFSGSGSGTDFTLTINSLEAEDAATYYCHQSSSLPWTFGQGTKVEIK
